Laboratory results: article PMC9723616

T1: FemX (UniProt Q9EY50 1-336)
T1 sequence: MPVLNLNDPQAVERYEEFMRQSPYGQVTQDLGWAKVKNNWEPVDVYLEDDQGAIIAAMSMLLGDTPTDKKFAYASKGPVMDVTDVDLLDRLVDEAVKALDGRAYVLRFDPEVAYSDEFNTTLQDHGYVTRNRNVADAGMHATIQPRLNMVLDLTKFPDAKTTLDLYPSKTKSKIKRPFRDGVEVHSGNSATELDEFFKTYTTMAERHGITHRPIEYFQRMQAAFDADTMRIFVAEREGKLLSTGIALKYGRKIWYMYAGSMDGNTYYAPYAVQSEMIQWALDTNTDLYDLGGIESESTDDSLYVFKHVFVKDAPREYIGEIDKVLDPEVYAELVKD


Target: T1, FemX
Assay: competition

Binder | Ki
GGGGCCUUAGCUCAGGCUCCACCA (XNA, 2'F-RNA in stem (14 F); dC at penultimate position (pdCpA); 2'-azido-2'-deoxy A76 joined by triazole to UDP-MurNAc-pentapeptide) [compound 17 (2'F-RNA stem peptidyl-helix, 24 nt)] | 0.397 ± 0.107 nM
GGGGCCUUAGCUCAGGCUCCACCA (XNA, 2'F-ANA in stem (14 F); dC at penultimate position (pdCpA); 2'-azido-2'-deoxy A76 joined by triazole to UDP-MurNAc-pentapeptide) [compound 20 (2'F-ANA stem peptidyl-helix, 24 nt)] | 221 ± 10 nM
